The text below walks through data of article PMC9682848.

For the experiment, the target named is lamprey serum spherical lectin (LSSL), native, from lamprey serum (Lampetra japonica (endogenous in lamprey serum)). The experiment is described as follows: cryo-EM structure; native LSSL purified from serum, 2 μg/μL, vitrified; Titan Krios 300 kV; RELION 3.1.

As to “lamprey serum spherical lectin (LSSL), native, from lamprey serum (natural protein)”, the stoichiometry N came to 3.

As usually defined, the stoichiometry N is a count of units in the complex or per binding partner.
